Measurements: article PMC5889621 (Proceedings of the National Academy of Sciences of the …, 2018)
Changes are numbered by the printed parent chain. Numbers in names are those of the source. Where “and” joins values, the source holds several entries; their conditions need not be identical. Equal entries are not always repeated.

T1: LMAN1/ERGIC53 (endogenous) (human (endogenous in 293A)), P49257
T1 chain: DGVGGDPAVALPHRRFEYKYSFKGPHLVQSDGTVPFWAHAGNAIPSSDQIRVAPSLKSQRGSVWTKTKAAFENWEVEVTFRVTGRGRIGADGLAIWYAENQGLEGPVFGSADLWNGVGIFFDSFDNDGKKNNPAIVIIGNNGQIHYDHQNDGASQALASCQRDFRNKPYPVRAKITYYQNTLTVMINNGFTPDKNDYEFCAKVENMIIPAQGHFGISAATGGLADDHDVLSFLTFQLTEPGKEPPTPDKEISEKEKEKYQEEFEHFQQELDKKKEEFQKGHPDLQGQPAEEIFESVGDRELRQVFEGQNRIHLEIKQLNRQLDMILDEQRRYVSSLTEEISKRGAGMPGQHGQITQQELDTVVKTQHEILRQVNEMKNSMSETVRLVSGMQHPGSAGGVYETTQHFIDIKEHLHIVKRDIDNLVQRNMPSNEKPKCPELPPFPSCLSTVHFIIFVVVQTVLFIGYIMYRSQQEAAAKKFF

B1: LMAN1/ERGIC53 (endogenous), P49257 31-510 (natural protein)
chain: T1 chain
B2: Myc-LMAN1 C466A C475A double mutant (natural protein, UniProt P49257 31-510, looked up)
chain: T1 chain with C436A, C445A
B3: Myc-LMAN1 C466A (natural protein, UniProt P49257 31-510, looked up)
chain: T1 chain with C436A
B4: Myc-LMAN1 C475A (natural protein, UniProt P49257 31-510, looked up)
chain: T1 chain with C445A

Legend:
[1] = target: T1, LMAN1/ERGIC53 (endogenous) (human …); experiment: SDS/PAGE without reducing agent and immunoblot; settings: remark: other sources report otherwise
[2] = target: the molecule itself; experiment: SDS/PAGE without reducing agent and immunoblot

Binder | stoichiometry N [1] | stoichiometry N [2]
B1 | 2 and 6 | –
B2 | – | 2
B3 | – | 2
B4 | – | 2
